Target: T1, murine EpCAM recombinant ectodomain (ECD), C-terminally His-Avi tagged (mouse)
T1 construct: also called mu EpCAM; EpCAM ECD
T1 chain: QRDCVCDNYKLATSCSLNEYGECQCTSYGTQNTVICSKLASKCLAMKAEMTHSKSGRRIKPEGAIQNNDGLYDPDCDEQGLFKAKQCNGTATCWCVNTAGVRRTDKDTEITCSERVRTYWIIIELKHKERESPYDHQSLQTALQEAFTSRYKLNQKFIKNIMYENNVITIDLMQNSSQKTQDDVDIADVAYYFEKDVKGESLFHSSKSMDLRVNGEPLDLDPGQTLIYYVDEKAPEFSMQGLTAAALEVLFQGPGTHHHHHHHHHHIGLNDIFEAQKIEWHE
Experiment: SPR (Biacore), antibody captured by anti-mouse IgG, EpCAM ECD as analyte, 37 C
Source text: This system is well established for the study of molecule interactions. It allows a continuous real-time monitoring of ligand/analyte bindings and thus the determination of association rate constants (ka), dissociation rate constants (kd), and equilibrium constants (KD) in various assay settings. SPR-technology is based on the measurement of the refractive index close to the surface of a gold coated biosensor chip. Changes in the refractive index indicate mass changes on the surface caused by the interaction of immobilized ligand with analyte injected in solution. If molecules bind to immobilized ligand on the surface the mass increases, in case of dissociation the mass decreases. For capturing, a goat anti-mouse IgG antibody was immobilized on the surface of a CM5 biosensorchip using amine-coupling chemistry according to the manufacturer's instructions. Flow cells were activated with a 1:1 mixture of 0.1 M N-hydroxysuccinimide and 0.4 M 1-ethyl-3-(3-dimethylaminopropyl)-carbodiimide hydrochloride at a flow rate of 5 μl/min at 25° C. Anti-mouse IgG antibody was injected in 10 mM sodium acetate, pH 4.5 at 10 μg/mL. A reference control flow cell was treated in the same way but with vehicle buffers only instead of the capturing antibody. Surfaces were blocked with an injection of 1 M ethanolamine/HCl pH 8.5. […] All interactions were performed at 37° C., using PBS-T as running buffer. The analytes were injected in a series of threefold increasing concentrations (EGFR ECD 4.12-1000 nM and EpCAM ECD 0.91-2000 nM in PBS-T+0.1% BSA) with a flow rate of 50 μl/min, 180 sec association, 1200 sec dissociation. The capture antibody was regenerated after each cycle with 10 mM glycine, pH 2.0 at a flow rate of 30 μl/min for 60 sec. Signals were detected at a rate of one signal per second.

B1: G8.8 (mouse EpCAM-specific antibody) (antibody, mouse IgG2a, kappa, V domains shown)
VH: EVQLAESGGGLVQPGRSMKLSCAASGFTFSNFPMAWVRQAPTKGLEWVATISTSGGSTYYRDSVKGRFTISRDNAKSTLYLQMNSLRSEDTATYYCTRTLYILRVFYFDYWGQGVMVTVSS
VL: DIQMTQSPASLSASLGETVSIECLASEGISNDLAWYQQKSGKSPQLLIYATSRLQDGVPSRFSGSGSGTRYSLKISGMQPEDEADYFCQQSYKYPWTFGGGTKLELKR
notes: Full heavy and light chains; also called EpCAM G8.8; anti-EpCAM mono-specific antibody
Kd: 61 nM
koff: 0.013 s⁻¹
kon: 220000 M⁻¹ s⁻¹

Reference: patent US20200317806A1 (Hoffmann-La Roche, published 2020)
